Experimental data reported in US20110229476A1 (Bayer, published 2011).

Molecular target: T1, tumor-associated antigen RG1 (Homo sapiens (Human), UniProt Q9BUD6 27-331)
T1 construct: Coated directly on 96-well plates at 1 ug/ml; also called RGI
T1 sequence: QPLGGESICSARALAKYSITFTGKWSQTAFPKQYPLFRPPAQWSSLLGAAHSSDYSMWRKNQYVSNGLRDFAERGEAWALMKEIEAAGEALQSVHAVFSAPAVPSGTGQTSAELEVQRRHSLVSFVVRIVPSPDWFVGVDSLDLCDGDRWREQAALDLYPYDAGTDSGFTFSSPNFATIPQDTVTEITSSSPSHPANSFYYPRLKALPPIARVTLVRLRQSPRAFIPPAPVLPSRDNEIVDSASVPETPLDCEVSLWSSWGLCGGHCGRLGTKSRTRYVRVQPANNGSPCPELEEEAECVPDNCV
Assay: RG1-binding ELISA, RG1 coated on plate, 4-parameter fit
Procedure: RG1-binding ELISA. A bispecific antibody containing Linker 1, anti-RG1 antibody 19G9, and polyclonal nonimmune control human IgG kappa were analyzed for binding to RG-1. Curve fitting of the data was performed using a 4-parameter equation with the Solver function in Microsoft Excel.
Ninety-six well plates were coated with RG1 (1 μg/ml) by overnight incubation, and the plates were then washed (5×) with PBS containing 0.5% Tween-20. Samples and controls (serially diluted) were added to the wells and incubated for 1 hr, followed by washes (5×) with PBS containing 0.5% Tween-20. Horserandish peroxidase (HRP)-conjugated anti-human IgG or HRP-conjugated anti-human Fab were diluted in PBS (1:5000) and added to each well. Following a 1 hr incubation, the plates were washed again. Amplex Red (10 μg/ml) was added to each well, and the signal was read using a plate reader. The data was analyzed using Softmax (Molecular Devices, Sunnyvale, Calif.).

- IC50: 1.4 nM
B1: anti-RG1 IgG 19G9 (antibody, V domains shown)
VH: QVQLVQSGGGLVQPGGSLRLSCAGSGFTFSSYVMHWLRQAPGKGLEWVSVIGTGGVTHYADSVKGRFTISRDNAKNSLYLQMNSLRAEDTAVYYCARWGYYGSGSYENDAFDIWGQGTMVTVSS
VL: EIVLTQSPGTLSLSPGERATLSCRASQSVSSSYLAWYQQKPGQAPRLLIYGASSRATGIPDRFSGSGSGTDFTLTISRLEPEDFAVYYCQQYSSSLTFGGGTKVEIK
